Reference: the supplement of paper PMC9170038

Legend:
[1] = test system: MS2 coat protein; assay: apparent KD of MS2 coat protein, switch OFF state (with FMN for OFF switches, without FMN for ON switches); designed switch direction (-1 OFF switch, 1 ON switch): 1; higher = weaker reporter binding; settings: FMN input: 0 or 200 uM; Eterna round: R93 (includes R88 designs)
Method in brief: (§1)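 For every design, apparent KD is the median of normalised binding-curve fits from its clusters. The RNA switches were transcribed on-chip from Illumina sequencing clusters and titrated with SNAP-549-labelled MS2 coat protein (twofold steps, 0.7 or 1.5 nM to 3 µM; 0.8–1.5 h to 10–20 min per step). Titrations used 100 mM Tris-HCl pH 7.5, 80 mM KCl, 4 mM MgCl2, without or with constant ligand.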

[2] = test system: MS2 coat protein; assay: apparent KD of MS2 coat protein, switch ON state; designed switch direction (-1 OFF switch, 1 ON switch): 1; higher = weaker reporter binding; settings: FMN input: 0 or 200 uM; Eterna round: R93 (includes R88 designs)
Method in brief: as §1

Sequence | apparent KD of MS2 coat protein [1] [nM] | apparent KD of MS2 coat protein [2] [nM]
AGGUAACAUGAGGAUCACCCAUGUACCGAUAAUGCAGGAUAUCGACACGAAAAUACGUGUCGAGAAGGGCAUGAAA [SS1 MT 23] | 13.5 | 14.3
AUAAAAUAAAGUGAGGAUAUCUAUAAUAAAACAUGAGGAUCACCCAUGUUAAAAAAAAGAUCAUGGGAGAAGGCAUAAAAUAAAU [SS2 M 31] | 21.7 | 7.51
AUAACACAUGAGGAUCACCCAUGUAGAAACAAGUCAGGAUAUCCGAUCCACAUGUGAAAAGGAGAAGGGACACUAA [SS 1 Tesla 6] | 146 | 37.4
AUGAAAGUAACACAGGAUAUCCAGGAUACAACAUGAGGAUCACCCAUGUACAUACGAACGUAUAAGGAGAAGGGUGGAUGAUCUUC [ss2-2] | 59.3 | 50.7
AUGAAGGAGAGAGAGGAUAUCCAAAGGGAAACAUGAGGAUCACCCAUGUAGAAGGUAGGAAAUUGGGAGAAGGCUCAAGAGAGAG [salish99-ss2-111] | 26.9 | 25.4
CAGGACGUAGGAUAGGAUAUAUGAAUAAUUACAUGAGGAUCACCCAUGUCCAUUUAUAUGGGAACAUAGAAGGGUUGUGGUUAUG [Mat - Same state - Malcolm Mod - D144] | 315 | 680
CAUAGACAUGAGGAUCACCCAUGUAGAAUUAUGGGAGGAUAUACAAAGACGAGAGUCAGAGUAGAAGGCCUAGGAA [salish99-ss1-160] | 38.6 | 20.2
CAUCACGCGCCUAAGGAUAUGUCUCACAAGACAUGAGGAUCACCCAUGUAGACUAAAUAAACGAUGCAGAAGGUGGAGCGCAUGC [Usrexe] | 149 | 76.4
CAUCAUGCGCCUAAGGAUAUGUCUCACAAGACAUGAGGAUCACCCAUGUAGAACAAAUAAGUGAUGCAGAAGGUGGAGCGCAUGC [Edcequed] | 137 | 18.9
CGCGAACAUGAGGAUCACCCAUGUAAAUCGCAUGUAGGAUAUGGGAUACACAUUAAGAUCCCAGAAGGGCGGAAAA [Leeroner] | 23.5 | 23.8
CGGAGACAUGAGGAUCACCCAUGUGAGAAGAGGCGAGGAUAUCGAAAAAAAAAAAAAAAACGAGAAGGCGCGAGAU [salish99-SS1-013] | 36.2 | 34
CGGAGACAUGAGGAUCACCCAUGUGAGAAGAGGCGAGGAUAUCGAAAGAAAGAAGAGAAACGAGAAGGCGCGAGAA [salish99-SS1-065] | 32.8 | 20.4
CGGAGACAUGAGGAUCACCCAUGUGAGAAGAGGCGAGGAUAUCGAAAGAAAGAAGAGAAAUGAGAAGGCGCGAGCC [salish99-SS1-081] | 39 | 36.2
CGUAAACAUGAGGAUCACCCAUGUCAAUAUGAUCAAGGAUAUGGGUUCCGAAGUGGAACACCAGAAGGUGAAUAGU [Inrea] | 580 | 377
CGUGAACAUGAGGAUCACCCAUGUGAAAAACAUAGAGGAUAUGUCGCGUGAGUGCAAAAGACAGAAGGCUAUCGUG [Mod 4 of Round 1 starryjess' Mod pf Nando] | 35.1 | 19.9
GAAAAACAUGAGGAUCACCCAUGUAAAAAUAUGGGAGGAUAUACAAAGACGAAAGUCAAAGUAGAAGGCCUAAAAG [77%, Mat - Mod of Eli, 3] | 59.7 | 24.4
GAAAAACAUGAGGAUCACCCAUGUAAGAUAAACACAGGAUAUGCGAAAAUAAAUAAAUAAGCAGAAGGGUGAAAAG [Mat - Same State 1 - Tesla mod - 78] | 37.4 | 25.7
GAAAAACAUGAGGAUCACCCAUGUAGAAAUAUGGGAGGAUAUACAAAGACGAAAGUCAAAGUAGAAGGCCUAUAAG [Starry Same State 1.5 (mat747 round 1 mod)] | 33.3 | 17.7
